From paper PMC10786891, “Massively parallel profiling of RNA-targeting CRISPR-Cas13d”

T1: EsCas13d, nuclease-dead (Eubacterium siraeum, UniProt B0MS50, R295A;H300A;R849A;H854A)
T1 sequence: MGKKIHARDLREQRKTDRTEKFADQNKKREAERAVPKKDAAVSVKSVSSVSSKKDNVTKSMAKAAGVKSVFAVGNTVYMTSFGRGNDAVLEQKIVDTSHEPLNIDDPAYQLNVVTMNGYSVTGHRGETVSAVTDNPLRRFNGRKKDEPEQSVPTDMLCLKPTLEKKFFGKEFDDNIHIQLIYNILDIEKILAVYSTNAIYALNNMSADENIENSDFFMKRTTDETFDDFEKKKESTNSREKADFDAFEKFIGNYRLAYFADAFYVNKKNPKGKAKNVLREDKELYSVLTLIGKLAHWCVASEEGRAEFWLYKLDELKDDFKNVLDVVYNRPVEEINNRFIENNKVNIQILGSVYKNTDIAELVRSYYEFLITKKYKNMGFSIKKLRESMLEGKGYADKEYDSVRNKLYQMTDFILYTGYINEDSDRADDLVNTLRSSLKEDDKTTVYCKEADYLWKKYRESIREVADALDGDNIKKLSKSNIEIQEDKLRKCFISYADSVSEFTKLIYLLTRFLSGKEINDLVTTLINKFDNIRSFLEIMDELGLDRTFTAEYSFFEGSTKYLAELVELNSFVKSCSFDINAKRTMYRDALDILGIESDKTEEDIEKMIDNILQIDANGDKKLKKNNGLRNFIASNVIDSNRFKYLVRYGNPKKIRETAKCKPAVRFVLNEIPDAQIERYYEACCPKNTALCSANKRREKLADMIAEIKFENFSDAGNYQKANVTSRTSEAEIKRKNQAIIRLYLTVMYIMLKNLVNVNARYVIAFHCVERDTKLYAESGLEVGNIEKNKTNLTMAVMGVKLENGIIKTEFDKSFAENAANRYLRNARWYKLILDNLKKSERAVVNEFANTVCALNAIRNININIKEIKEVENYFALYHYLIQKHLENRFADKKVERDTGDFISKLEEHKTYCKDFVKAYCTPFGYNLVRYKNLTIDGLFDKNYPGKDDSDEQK


Target: T1, EsCas13d, nuclease-dead
Assay: crRNA (strand 1, pre-loaded); Mg2+; 40 mM Tris-HCl pH 7.5, 150 mM NaCl, 6 mM MgCl2, 1 mM DTT, 0.1% Tween-20, 0.2 mg/ml BSA; 25 C; 10 min per concentration, then washed
Details: tags: His6-TwinStrep-SUMO cleaved; N-terminal SNAP kept (SNAP-Surface 488); label: 3' end held by stalled T7 RNA polymerase

Binder	Kd
target 1 C4A,U10G (mixed) RNA 1: CACCCGUGCAAAAAUGCAGGGGUCUAAAACUGAGCGGAUAACCUCUCUAUGG RNA 2: GGGAAUGGAUCCACAUCUACGAAUUCGUACCAUAGAGAGGUGAUCCGAUCACCGAGAUCGGAAGAGCACACGU	10.1 ± 0.9 nM
target 1 insA 3' of 7,insA 3' of 4 (mixed) RNA 1: CACCCGUGCAAAAAUGCAGGGGUCUAAAACUGAGCGGAUAACCUCUCUAUGG RNA 2: GGGAAUGGAUCCACAUCUACGAAUUCGUACCAUAGAGAGGUUAUCACGCAUCACCGAGAUCGGAAGAGCACACGU	4.53 ± 0.23 nM
target 1 C2G,G13A (mixed) RNA 1: CACCCGUGCAAAAAUGCAGGGGUCUAAAACUGAGCGGAUAACCUCUCUAUGG RNA 2: GGGAAUGGAUCCACAUCUACGAAUUCGUACCAUAGAGAAGUUAUCCGCUGACCGAGAUCGGAAGAGCACACGU	5.4 ± 0.6 nM
target 1 A9U,U19G (mixed) RNA 1: CACCCGUGCAAAAAUGCAGGGGUCUAAAACUGAGCGGAUAACCUCUCUAUGG RNA 2: GGGAAUGGAUCCACAUCUACGAAUUCGUACCAGAGAGAGGUUUUCCGCUCACCGAGAUCGGAAGAGCACACGU	72 ± 9 nM
target 1 U8G,G15U (mixed) RNA 1: CACCCGUGCAAAAAUGCAGGGGUCUAAAACUGAGCGGAUAACCUCUCUAUGG RNA 2: GGGAAUGGAUCCACAUCUACGAAUUCGUACCAUAGAUAGGUUAGCCGCUCACCGAGAUCGGAAGAGCACACGU	73 ± 12 nM
target 1 insC 3' of 22,insC 3' of 20 (mixed) RNA 1: CACCCGUGCAAAAAUGCAGGGGUCUAAAACUGAGCGGAUAACCUCUCUAUGG RNA 2: GGGAAUGGAUCCACAUCUACGAAUUCGUACCCACUAGAGAGGUUAUCCGCUCACCGAGAUCGGAAGAGCACACGU	13.3 ± 1.7 nM
target 1 insU 3' of 12,insC 3' of 9 (mixed) RNA 1: CACCCGUGCAAAAAUGCAGGGGUCUAAAACUGAGCGGAUAACCUCUCUAUGG RNA 2: GGGAAUGGAUCCACAUCUACGAAUUCGUACCAUAGAGAGGUUUACUCCGCUCACCGAGAUCGGAAGAGCACACGU	11.6 ± 0.6 nM
target 1 insC 3' of 17,insC 3' of 1 (mixed) RNA 1: CACCCGUGCAAAAAUGCAGGGGUCUAAAACUGAGCGGAUAACCUCUCUAUGG RNA 2: GGGAAUGGAUCCACAUCUACGAAUUCGUACCAUAGCAGAGGUUAUCCGCUCACCCGAGAUCGGAAGAGCACACGU	39 ± 4 nM
target 1 insU 3' of 9,insC 3' of 8 (mixed) RNA 1: CACCCGUGCAAAAAUGCAGGGGUCUAAAACUGAGCGGAUAACCUCUCUAUGG RNA 2: GGGAAUGGAUCCACAUCUACGAAUUCGUACCAUAGAGAGGUUAUUCCCGCUCACCGAGAUCGGAAGAGCACACGU	42 ± 10 nM
target 1 insA 3' of 22,insC 3' of 10 (mixed) RNA 1: CACCCGUGCAAAAAUGCAGGGGUCUAAAACUGAGCGGAUAACCUCUCUAUGG RNA 2: GGGAAUGGAUCCACAUCUACGAAUUCGUACACAUAGAGAGGUUCAUCCGCUCACCGAGAUCGGAAGAGCACACGU	29 ± 4 nM
target 1 insC 3' of 5,insG 3' of 4 (mixed) RNA 1: CACCCGUGCAAAAAUGCAGGGGUCUAAAACUGAGCGGAUAACCUCUCUAUGG RNA 2: GGGAAUGGAUCCACAUCUACGAAUUCGUACCAUAGAGAGGUUAUCCGCCGUCACCGAGAUCGGAAGAGCACACGU	9.2 ± 0.8 nM
target 1 insG 3' of 14,insU 3' of 2 (mixed) RNA 1: CACCCGUGCAAAAAUGCAGGGGUCUAAAACUGAGCGGAUAACCUCUCUAUGG RNA 2: GGGAAUGGAUCCACAUCUACGAAUUCGUACCAUAGAGAGGGUUAUCCGCUCUACCGAGAUCGGAAGAGCACACGU	12.5 ± 0.8 nM
target 1 insA 3' of 11,insU 3' of 7 (mixed) RNA 1: CACCCGUGCAAAAAUGCAGGGGUCUAAAACUGAGCGGAUAACCUCUCUAUGG RNA 2: GGGAAUGGAUCCACAUCUACGAAUUCGUACCAUAGAGAGGUAUAUCUCGCUCACCGAGAUCGGAAGAGCACACGU	48 ± 5 nM
target 1 insA 3' of 17,insG 3' of 8 (mixed) RNA 1: CACCCGUGCAAAAAUGCAGGGGUCUAAAACUGAGCGGAUAACCUCUCUAUGG RNA 2: GGGAAUGGAUCCACAUCUACGAAUUCGUACCAUAGAAGAGGUUAUGCCGCUCACCGAGAUCGGAAGAGCACACGU	14.7 ± 1.7 nM
target 1 insG 3' of 9,insC 3' of 9 (mixed) RNA 1: CACCCGUGCAAAAAUGCAGGGGUCUAAAACUGAGCGGAUAACCUCUCUAUGG RNA 2: GGGAAUGGAUCCACAUCUACGAAUUCGUACCAUAGAGAGGUUAGCUCCGCUCACCGAGAUCGGAAGAGCACACGU	17.2 ± 0.7 nM
target 1 insC 3' of 8,insG 3' of 7 (mixed) RNA 1: CACCCGUGCAAAAAUGCAGGGGUCUAAAACUGAGCGGAUAACCUCUCUAUGG RNA 2: GGGAAUGGAUCCACAUCUACGAAUUCGUACCAUAGAGAGGUUAUCCGCGCUCACCGAGAUCGGAAGAGCACACGU	10.3 ± 0.9 nM
target 1 C2A,G5U (mixed) RNA 1: CACCCGUGCAAAAAUGCAGGGGUCUAAAACUGAGCGGAUAACCUCUCUAUGG RNA 2: GGGAAUGGAUCCACAUCUACGAAUUCGUACCAUAGAGAGGUUAUCCUCUAACCGAGAUCGGAAGAGCACACGU	24 ± 1.9 nM
target 1 insU 3' of 1 (mixed) RNA 1: CACCCGUGCAAAAAUGCAGGGGUCUAAAACUGAGCGGAUAACCUCUCUAUGG RNA 2: GGGAAUGGAUCCACAUCUACGAAUUCGUACCAUAGAGAGGUUAUCCGCUCAUCCGAGAUCGGAAGAGCACACGU	9.6 ± 0.4 nM
target 1 insG 3' of 8,insA 3' of 7 (mixed) RNA 1: CACCCGUGCAAAAAUGCAGGGGUCUAAAACUGAGCGGAUAACCUCUCUAUGG RNA 2: GGGAAUGGAUCCACAUCUACGAAUUCGUACCAUAGAGAGGUUAUGCACGCUCACCGAGAUCGGAAGAGCACACGU	10.6 ± 0.6 nM
target 1 U19A,C21U (mixed) RNA 1: CACCCGUGCAAAAAUGCAGGGGUCUAAAACUGAGCGGAUAACCUCUCUAUGG RNA 2: GGGAAUGGAUCCACAUCUACGAAUUCGUACUAAAGAGAGGUUAUCCGCUCACCGAGAUCGGAAGAGCACACGU	10.3 ± 1 nM
target 1 insC 3' of 17,insG 3' of 16 (mixed) RNA 1: CACCCGUGCAAAAAUGCAGGGGUCUAAAACUGAGCGGAUAACCUCUCUAUGG RNA 2: GGGAAUGGAUCCACAUCUACGAAUUCGUACCAUAGCAGGAGGUUAUCCGCUCACCGAGAUCGGAAGAGCACACGU	64 ± 6 nM
target 1 insU 3' of 12,insA 3' of 11 (mixed) RNA 1: CACCCGUGCAAAAAUGCAGGGGUCUAAAACUGAGCGGAUAACCUCUCUAUGG RNA 2: GGGAAUGGAUCCACAUCUACGAAUUCGUACCAUAGAGAGGUUAUAUCCGCUCACCGAGAUCGGAAGAGCACACGU	13 ± 0.9 nM
target 1 insG 3' of 16,insU 3' of 15 (mixed) RNA 1: CACCCGUGCAAAAAUGCAGGGGUCUAAAACUGAGCGGAUAACCUCUCUAUGG RNA 2: GGGAAUGGAUCCACAUCUACGAAUUCGUACCAUAGAGGUAGGUUAUCCGCUCACCGAGAUCGGAAGAGCACACGU	26 ± 4 nM
target 1 insU 3' of 17,insC 3' of 9 (mixed) RNA 1: CACCCGUGCAAAAAUGCAGGGGUCUAAAACUGAGCGGAUAACCUCUCUAUGG RNA 2: GGGAAUGGAUCCACAUCUACGAAUUCGUACCAUAGUAGAGGUUACUCCGCUCACCGAGAUCGGAAGAGCACACGU	25.1 ± 1.6 nM
target 1 insG 3' of 21,insG 3' of 21 (mixed) RNA 1: CACCCGUGCAAAAAUGCAGGGGUCUAAAACUGAGCGGAUAACCUCUCUAUGG RNA 2: GGGAAUGGAUCCACAUCUACGAAUUCGUACCGGAUAGAGAGGUUAUCCGCUCACCGAGAUCGGAAGAGCACACGU	87 ± 24 nM
target 1 A9U,U11C (mixed) RNA 1: CACCCGUGCAAAAAUGCAGGGGUCUAAAACUGAGCGGAUAACCUCUCUAUGG RNA 2: GGGAAUGGAUCCACAUCUACGAAUUCGUACCAUAGAGAGGCUUUCCGCUCACCGAGAUCGGAAGAGCACACGU	13 ± 1 nM
target 1 insC 3' of 15,insU 3' of 15 (mixed) RNA 1: CACCCGUGCAAAAAUGCAGGGGUCUAAAACUGAGCGGAUAACCUCUCUAUGG RNA 2: GGGAAUGGAUCCACAUCUACGAAUUCGUACCAUAGAGCUAGGUUAUCCGCUCACCGAGAUCGGAAGAGCACACGU	23.3 ± 1.1 nM
target 1 insA 3' of 2 (mixed) RNA 1: CACCCGUGCAAAAAUGCAGGGGUCUAAAACUGAGCGGAUAACCUCUCUAUGG RNA 2: GGGAAUGGAUCCACAUCUACGAAUUCGUACCAUAGAGAGGUUAUCCGCUCAACCGAGAUCGGAAGAGCACACGU	8.5 ± 0.5 nM
